T1: recombinant human IFNγ (human, UniProt P01579 24-166, limits assumed)
T1 sequence (looked up): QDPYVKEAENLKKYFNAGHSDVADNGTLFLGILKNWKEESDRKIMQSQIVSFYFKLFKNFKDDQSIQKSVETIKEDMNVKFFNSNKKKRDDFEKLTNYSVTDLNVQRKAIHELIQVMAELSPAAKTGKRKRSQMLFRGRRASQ

T2: native human IFNγ (human, UniProt P01579 24-161, limits assumed)
T2 construct: Native protein in a culture supernatant; also called nhuIFNγ
T2 sequence (looked up): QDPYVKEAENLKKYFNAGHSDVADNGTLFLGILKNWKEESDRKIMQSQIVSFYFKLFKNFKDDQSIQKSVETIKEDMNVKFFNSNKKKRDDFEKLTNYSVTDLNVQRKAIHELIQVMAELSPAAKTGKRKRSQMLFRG

T3: native cynomolgus IFNγ (cynomolgus monkey, UniProt P63309 24-165, limits assumed)
T3 construct: Native protein in a culture supernatant; also called ncyIFNγ
T3 sequence (looked up): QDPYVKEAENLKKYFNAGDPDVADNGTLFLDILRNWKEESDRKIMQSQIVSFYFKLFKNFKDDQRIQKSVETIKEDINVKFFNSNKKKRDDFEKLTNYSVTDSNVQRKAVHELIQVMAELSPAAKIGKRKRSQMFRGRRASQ

T4: recombinant cynomolgus IFNγ (cynomolgus monkey, UniProt P63309 24-165)
T4 construct: also called rcyIFNγ
T4 sequence (looked up): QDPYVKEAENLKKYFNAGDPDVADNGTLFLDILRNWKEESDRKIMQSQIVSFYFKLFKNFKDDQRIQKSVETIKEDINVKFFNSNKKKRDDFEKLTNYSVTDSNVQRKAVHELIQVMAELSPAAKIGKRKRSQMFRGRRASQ

T5: recombinant dog IFNγ (dog, UniProt P42161 24-166)
T5 construct: also called rdIFNγ
T5 sequence (looked up): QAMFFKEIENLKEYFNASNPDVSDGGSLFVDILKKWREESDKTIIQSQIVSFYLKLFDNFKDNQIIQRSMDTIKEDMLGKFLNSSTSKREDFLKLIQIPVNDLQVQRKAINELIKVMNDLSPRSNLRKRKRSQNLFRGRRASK

T6: recombinant cat IFNγ (cat, UniProt P46402 24-167)
T6 construct: also called rcIFNγ
T6 sequence (looked up): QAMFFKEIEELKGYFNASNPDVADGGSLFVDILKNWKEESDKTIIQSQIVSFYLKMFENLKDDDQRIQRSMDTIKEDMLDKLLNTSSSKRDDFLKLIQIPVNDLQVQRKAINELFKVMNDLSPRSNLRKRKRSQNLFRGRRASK


Assays:
recombinant human IFNγ [1] = target: T1, recombinant human IFNγ; assay: cell-based or functional assay
recombinant human IFNγ [2] = target: T1, recombinant human IFNγ; assay: Binding, cross-reactivity table (Sandwich ELISA)
native human IFNγ = target: T2, native human IFNγ; assay: Binding, cross-reactivity table (Sandwich ELISA)
native cynomolgus IFNγ = target: T3, native cynomolgus IFNγ; assay: Binding, cross-reactivity table (Sandwich ELISA)
[3] = target: T4, recombinant cynomolgus IFNγ; assay: Binding, cross-reactivity table (Sandwich ELISA)
recombinant dog IFNγ = target: T5, recombinant dog IFNγ; assay: Sandwich ELISA, IFNγ captured with pre-coated NI-0501
From the text: (§1) The IFNγ from each species was detected using a polyclonal antibody specific for the IFNγ in that assay.

recombinant cat IFNγ = target: T6, recombinant cat IFNγ; assay: as above
From the text: as §1

Binder | MHC II Inhibition Cell-Based Assay IC50 (recombinant human IFNγ [1]) [pM] | also measured
AD1.3R3P5_F8 IgG (antibody, V domains shown) VH: not shown VL: NFMLTQPHSVSESPGKTVTISCTRSSGSIASNYVHWYQQRPGSSPTTVIYEDNRRPSGVPARFSGSIDSSSNSASLTISGLETDDEADYYCQSSDTTYHGGVVFGGGTKLTVLG | 1520 | –
NI-0501 (antibody, V domains shown, It is the back-mutated version of A6; also called A6 back-mutated to germline; back-mutated A6) VH: not shown VL: NFMLTQPHSVSESPGKTVTISCTRSSGSIASNYVQWYQQRPGSSPTTVIYEDNQRPSGVPDRFSGSIDSSSNSASLTISGLKTEDEADYYCQSYDGSNRWMFGGGTKLTVL | – | binding result (recombinant human IFNγ [2]): binds; binding result (native human IFNγ): binds; binding result (native cynomolgus IFNγ): binds; binding result [3]: binds; binding result (recombinant dog IFNγ): no binding; binding result (recombinant cat IFNγ): no binding
AD1.4R4P2_G7 IgG (antibody, V domains shown) VH: not shown VL: NFMLTQPHAVSESPGKTVTISCTGRNGNIASNYVQWYQQRPDSAPTLIIFEDTQRPSGVPTRLSGSIDTSSNSASLIISSLRTEDEADYYCQSSDSNRVLFGGGTKVTVLG | 233 | –
AD1.4R4P1_B9 IgG (antibody, V domains shown) VH: not shown VL: NFMLTQPHSVSESPGKTVTISCTRSSGSIVSNYVQWYQQRPGSAPTTVIFDDDQRPSGVPGRFSGSLDSSSNSASLTISGLQTEDEADYYCQSYDSSNVVFGGGTKVTVLG | 322 | –
AD1.3R3P6_F9 IgG (antibody, V domains shown) VH: not shown VL: NFMLTQPHSVSESPGKTVTISCTRSSGSIASNYVQWYQQRPGSAPTIVIYEDNQRPSGVPHRFSGSIDSSSNSASLTISGLKTEDEADYYCQSYEGFGGGTKLTVLG | 185 | –
AC1.2R3P2_A6 IgG (antibody, V domains shown) VH: not shown VL: NFMLTQPHSVSESPGKTVTISCTRSSGSIVSNYVQWYQQRPGSAPTTVIYEDNRRPSGVPDRFSGSIDSSSNTASLTISGLEAEDEADYYCQSYDGSNRWMFGGGTKLTVLG | 41 | –
AC1.2R2P2_D8 IgG (antibody, V domains shown) VH: not shown VL: NFMLTQPHSVSESPGKTVTISCTRSSGSIVSNYVQWYQQRPGSSPTTVIYEDNQRPSGVPDRFSGSIDSSSNSASLTISGLKTEDEADYYCQSYDSNNFWVFGGGTKLTVLG | 708 | –
AC1.4R4P2_C10 IgG (antibody, V domains shown) VH: not shown VL: NFMLTQPHSVSESPGKTVTISCTRSSGTIASNYVQWYQQRPGSSPTTVIYEDNQRPSGVPDRFSGSIDSSSNSASLTISGLKTEDEADYYCQSYDNSNHWVFGGGTKVTVLG | 203 | –
